Assay results: US20190382493A1 (published 2019)
Where two headings read alike, the source gives them in different places.

Assays:
[1] = biological target: T1, human PDL1-Fc (R & D Systems) (human, UniProt Q9NZQ7 19-239); experiment: ELISA
[2] = biological target: T2, cynomolgus monkey (cyno) PDL1-Fc (Sino biological) (cynomolgus monkey, UniProt G7PSE7 19-239); experiment: ELISA
[3] = biological target: T3, mouse PDL1-Fc (R & D Systems) (mouse, UniProt Q9EP73 19-238); experiment: ELISA
[4] = biological target: T4, human PDL1 (R&D Systems) (human, UniProt Q9NZQ7 19-239); experiment: ELISA blocking of human PD-1 binding to PDL1; hPD-1 blockade
T4 sequence (Q9NZQ7 19-239): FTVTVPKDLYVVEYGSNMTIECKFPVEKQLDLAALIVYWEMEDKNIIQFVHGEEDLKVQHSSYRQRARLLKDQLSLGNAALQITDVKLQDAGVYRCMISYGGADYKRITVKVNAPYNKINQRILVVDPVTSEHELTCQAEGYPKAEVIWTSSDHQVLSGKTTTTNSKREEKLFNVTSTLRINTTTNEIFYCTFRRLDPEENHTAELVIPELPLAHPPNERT

[5] = biological target: T5, cyno PDL1 (adsorbed in blockade assays) (cynomolgus monkey, UniProt G7PSE7 19-239); experiment: ELISA blocking of cyno B7-1 binding to PDL1; cyno B7-1 blockade
T5 sequence (G7PSE7 entry or part of it): as the sequence (Q9NZQ7 19-239) above, with A33T, A34S, S62N, R68Q, Q82R, F173L, T185A, T192I, H215L counted along it

[6] = biological target: T4, human PDL1 (R&D Systems); experiment: ELISA blocking of human B7-1 binding to PDL1; hB7-1 blockade
[7] = biological target: T5, cyno PDL1 (adsorbed in blockade assays); experiment: ELISA blocking of cyno PD-1 binding to PDL1; cyno PD1 blockade
[8] = biological target: T1, human PDL1-Fc (R & D Systems); experiment: ELISA; remark: listed apart in the source
[9] = biological target: T2, cynomolgus monkey (cyno) PDL1-Fc (Sino …); experiment: ELISA; remark: listed apart in the source
[10] = biological target: T3, mouse PDL1-Fc (R & D Systems); experiment: ELISA; remark: listed apart in the source

T1 sequence (Q9NZQ7 19-239): as the sequence (Q9NZQ7 19-239) above
T3 sequence (Q9EP73 19-238): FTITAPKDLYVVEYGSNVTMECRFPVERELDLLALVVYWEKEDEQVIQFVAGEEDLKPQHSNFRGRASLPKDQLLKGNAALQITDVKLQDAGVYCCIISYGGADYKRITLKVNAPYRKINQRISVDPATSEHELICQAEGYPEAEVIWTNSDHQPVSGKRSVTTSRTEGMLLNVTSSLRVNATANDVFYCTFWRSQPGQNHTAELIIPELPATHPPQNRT
T2 sequence (G7PSE7 entry or part of it): as the sequence (Q9NZQ7 19-239) above, with A33T, A34S, S62N, R68Q, Q82R, F173L, T185A, T192I, H215L counted along it

Kd [1] [nM] | Kd [2] [nM] | Kd [3] [nM] | IC50 [4] [nM] | IC50 [5] [nM] | IC50 [6] [nM] | IC50 [7] [nM] | Kd [8] [nM] | Kd [9] [nM] | Kd [10] [nM] | Binder
0.272 | 0.544 | 0.464 | 0.7 | 0.1 | 0.5 | – | – | – | – | anti-PDL1 antibody C5H9v2 (antibody, V domains shown) VH: EVQLLESGGGLVQPGGSLRLSCAASGFTFSSYAMSWVRQAPGKGLEWVSSIWRNGIVTVYADSVKGRFTISRDNSKNTLYLQMNSLRAEDTAVYYCAKWSAAFDYWGQGTLVTVSS VL: DIQMTQSPSSLSASVGDRVTITCRASQSISSYLNWYQQKPGKAPKLLIYAASSLQSGVPSRFSGSGSGTDFTLTISSLQPEDFATYYCQQDNGYPSTFGGGTKVEIKR
– | – | – | 39.8 | 9.6 | 11.7 | 7 | – | – | – | anti-PDL1 activatable antibody PL07-2001-C5H9v2 (antibody) VH: EVQLLESGGGLVQPGGSLRLSCAASGFTFSSYAMSWVRQAPGKGLEWVSSIWRNGIVTVYADSVKGRFTISRDNSKNTLYLQMNSLRAEDTAVYYCAKWSAAFDYWGQGTLVTVSS VL: QGQSGSGIALCPSHFCQLPQTGGGSSGGSGGSGGISSGLLSGRSDNHGGSDIQMTQSPSSLSASVGDRVTITCRASQSISSYLNWYQQKPGKAPKLLIYAASSLQSGVPSRFSGSGSGTDFTLTISSLQPEDFATYYCQQDNGYPSTFGGGTKVEIKR
– | – | – | – | – | – | – | 0.515 | 0.399 | 0.666 | C5H9 mIgG2a (antibody, V domains shown) VH: EVQLLESGGGLVQPGGSLRLSCAASGFTFSSYAMSWVRQAPGKGLEWVSSIWRNGIVTVYADSVKGRFTISRDNSKNTLYLQMNSLRAEDTAVYYCAKWSAAFDYWGQGTLVTVSS VL: DIQMTQSPSSLSASVGDRVTITCRASQSISSYLNWYQQKPGKAPKLLIYYASTLQSGVPSRFSGSGSGTDFTLTISSLQPEDFATYYCQQDNGYPSTFGQGTKVEIKR
0.286 | 0.398 | 0.475 | – | – | – | – | – | – | – | anti-PDL1 antibody C5H9 (antibody, V domains shown) VH: EVQLLESGGGLVQPGGSLRLSCAASGFTFSSYAMSWVRQAPGKGLEWVSSIWRNGIVTVYADSVKGRFTISRDNSKNTLYLQMNSLRAEDTAVYYCAKWSAAFDYWGQGTLVTVSS VL: DIQMTQSPSSLSASVGDRVTITCRASQSISSYLNWYQQKPGKAPKLLIYYASTLQSGVPSRFSGSGSGTDFTLTISSLQPEDFATYYCQQDNGYPSTFGQGTKVEIKR
